Results published in US20100226906.

What was measured:
[1] = biological target: T1, synthetic gamma poly-glutamate peptide of 30 D-glutamate residues
T1 chain: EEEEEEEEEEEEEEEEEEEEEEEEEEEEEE

[2] = biological target: T2, synthetic gamma poly-glutamate peptide of 30 L-glutamate residues
T2 chain: T1 chain

[3] = biological target: T3, synthetic gamma poly-glutamate 30mer containing both D- and L-glutamate (15 D- and 15 L-residues) (not fully specified)
T3 chain: T1 chain

B1: recombinant poly-γ-glutamate hydrolase (PghP) of bacteriophage φNIT1 (protein)
chain: MAQTDTYPNIEALENAETVGVAYNIEVKRQNPSMIYFSPHAGGIEVGTTELIYRVVELTGGSLYLFQGLLPSGNSRLHVTSTHFDEPMAVCMLSKHTDAVSFHGYKDDYNKNTLVGGLNTELRNLIVSKLNSKGIAAEVATDRFTATDPDNIVNRCASGKGVQLEISSAQRRAFFQNNDWSKANRGNVTQEFLDYAEAIKEAEAEYYG
With B1 the “hydrolysis of synthetic 30mer (digestion with purified enzyme, SDS tricine PAGE)” value (from here on “hydrolysis of synthetic 30mer”) [1] was “No hydrolysis of the D-polyglutamate was seen”, the “hydrolysis of synthetic 30mer” value [2] was “complete hydrolysis of L- and 30mers containing both D- and L-was observed” and the “hydrolysis of synthetic 30mer” value [3] was “complete hydrolysis of L- and 30mers containing both D- and L-was observed”.
